Data as given in patent US10919943B2, “Mutant proteins enabling agrochemical control of plant gene expression” (The Regents of the University of California, priority 2016, dated 2021).

system: HAB1; assay: Yeast two hybrid of pBD-PYR1 site saturation mutants with pACT-HAB1 on 10 μM ABA, β-galactosidase staining; assay type: cell-based, Arabidopsis; set-up: key: x: Mutations in PYR1 that disrupt ABA-induced binding to PYR1 to HAB1; conditions: S. cerevisiae Y190, 10 μM ABA; dead = lack of visible staining in comparison to wild type control
Summary of the method: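 Binding was read by β-galactosidase staining of chloroform-lysed colonies after 2 days at 30° C on SD (-Leu, -Trp) plates containing 10 μM (+)-ABA. Yeast strain Y190 carried the BD-PYR1 single-substitution mutants plus the AD-HAB1 fusion. Absence of staining versus the wild-type control defined "dead" mutants.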

Mutations in PYR1 that disrupt ABA-induced binding to PYR1 to HAB1 | Molecule
x | R116I: PYR1 mutant (protein, UniProt O49686 1-191, looked up, variant R116I) Abscisic acid receptor PYR1: MPSELTPEERSELKNSIAEFHTYQLDPGSCSSLHAQRIHAPPELVWSIVRRFDKPQTYKHFIKSCSVEQNFEMRVGCTRDVIVISGLPANTSTERLDILDDERRVTGFSIIGGEHILTNYKSVTTVHRFEKENRIWTVVLESYVVDMPEGNSEDDTRMFADTVVKLNLQKLATVAEAMARNSGDGSGSQVT
x | L117W: PYR1 mutant (protein, UniProt O49686 1-191, looked up, variant L117W) Abscisic acid receptor PYR1: MPSELTPEERSELKNSIAEFHTYQLDPGSCSSLHAQRIHAPPELVWSIVRRFDKPQTYKHFIKSCSVEQNFEMRVGCTRDVIVISGLPANTSTERLDILDDERRVTGFSIIGGEHRWTNYKSVTTVHRFEKENRIWTVVLESYVVDMPEGNSEDDTRMFADTVVKLNLQKLATVAEAMARNSGDGSGSQVT
x | L117E: PYR1 mutant (protein, UniProt O49686 1-191, looked up, variant L117E) Abscisic acid receptor PYR1: MPSELTPEERSELKNSIAEFHTYQLDPGSCSSLHAQRIHAPPELVWSIVRRFDKPQTYKHFIKSCSVEQNFEMRVGCTRDVIVISGLPANTSTERLDILDDERRVTGFSIIGGEHRETNYKSVTTVHRFEKENRIWTVVLESYVVDMPEGNSEDDTRMFADTVVKLNLQKLATVAEAMARNSGDGSGSQVT
x | L117P: PYR1 mutant (protein, UniProt O49686 1-191, looked up, variant L117P) Abscisic acid receptor PYR1: MPSELTPEERSELKNSIAEFHTYQLDPGSCSSLHAQRIHAPPELVWSIVRRFDKPQTYKHFIKSCSVEQNFEMRVGCTRDVIVISGLPANTSTERLDILDDERRVTGFSIIGGEHRPTNYKSVTTVHRFEKENRIWTVVLESYVVDMPEGNSEDDTRMFADTVVKLNLQKLATVAEAMARNSGDGSGSQVT
x | L117R: PYR1 mutant (protein, UniProt O49686 1-191, looked up, variant L117R) Abscisic acid receptor PYR1: MPSELTPEERSELKNSIAEFHTYQLDPGSCSSLHAQRIHAPPELVWSIVRRFDKPQTYKHFIKSCSVEQNFEMRVGCTRDVIVISGLPANTSTERLDILDDERRVTGFSIIGGEHRRTNYKSVTTVHRFEKENRIWTVVLESYVVDMPEGNSEDDTRMFADTVVKLNLQKLATVAEAMARNSGDGSGSQVT
x | P148Q: PYR1 mutant (protein, UniProt O49686 1-191, looked up, variant P148Q) Abscisic acid receptor PYR1: MPSELTPEERSELKNSIAEFHTYQLDPGSCSSLHAQRIHAPPELVWSIVRRFDKPQTYKHFIKSCSVEQNFEMRVGCTRDVIVISGLPANTSTERLDILDDERRVTGFSIIGGEHRLTNYKSVTTVHRFEKENRIWTVVLESYVVDMQEGNSEDDTRMFADTVVKLNLQKLATVAEAMARNSGDGSGSQVT
x | P148R: PYR1 mutant (protein, UniProt O49686 1-191, looked up, variant P148R) Abscisic acid receptor PYR1: MPSELTPEERSELKNSIAEFHTYQLDPGSCSSLHAQRIHAPPELVWSIVRRFDKPQTYKHFIKSCSVEQNFEMRVGCTRDVIVISGLPANTSTERLDILDDERRVTGFSIIGGEHRLTNYKSVTTVHRFEKENRIWTVVLESYVVDMREGNSEDDTRMFADTVVKLNLQKLATVAEAMARNSGDGSGSQVT
x | P148L: PYR1 mutant (protein, UniProt O49686 1-191, looked up, variant P148L) Abscisic acid receptor PYR1: MPSELTPEERSELKNSIAEFHTYQLDPGSCSSLHAQRIHAPPELVWSIVRRFDKPQTYKHFIKSCSVEQNFEMRVGCTRDVIVISGLPANTSTERLDILDDERRVTGFSIIGGEHRLTNYKSVTTVHRFEKENRIWTVVLESYVVDMLEGNSEDDTRMFADTVVKLNLQKLATVAEAMARNSGDGSGSQVT
x | P148N: PYR1 mutant (protein, UniProt O49686 1-191, looked up, variant P148N) Abscisic acid receptor PYR1: MPSELTPEERSELKNSIAEFHTYQLDPGSCSSLHAQRIHAPPELVWSIVRRFDKPQTYKHFIKSCSVEQNFEMRVGCTRDVIVISGLPANTSTERLDILDDERRVTGFSIIGGEHRLTNYKSVTTVHRFEKENRIWTVVLESYVVDMNEGNSEDDTRMFADTVVKLNLQKLATVAEAMARNSGDGSGSQVT
x | L117T: PYR1 mutant (protein, UniProt O49686 1-191, looked up, variant L117T) Abscisic acid receptor PYR1: MPSELTPEERSELKNSIAEFHTYQLDPGSCSSLHAQRIHAPPELVWSIVRRFDKPQTYKHFIKSCSVEQNFEMRVGCTRDVIVISGLPANTSTERLDILDDERRVTGFSIIGGEHRTTNYKSVTTVHRFEKENRIWTVVLESYVVDMPEGNSEDDTRMFADTVVKLNLQKLATVAEAMARNSGDGSGSQVT
x | L117A: PYR1 mutant (protein, UniProt O49686 1-191, looked up, variant L117A) Abscisic acid receptor PYR1: MPSELTPEERSELKNSIAEFHTYQLDPGSCSSLHAQRIHAPPELVWSIVRRFDKPQTYKHFIKSCSVEQNFEMRVGCTRDVIVISGLPANTSTERLDILDDERRVTGFSIIGGEHRATNYKSVTTVHRFEKENRIWTVVLESYVVDMPEGNSEDDTRMFADTVVKLNLQKLATVAEAMARNSGDGSGSQVT
x | L117G: PYR1 mutant (protein, UniProt O49686 1-191, looked up, variant L117G) Abscisic acid receptor PYR1: MPSELTPEERSELKNSIAEFHTYQLDPGSCSSLHAQRIHAPPELVWSIVRRFDKPQTYKHFIKSCSVEQNFEMRVGCTRDVIVISGLPANTSTERLDILDDERRVTGFSIIGGEHRGTNYKSVTTVHRFEKENRIWTVVLESYVVDMPEGNSEDDTRMFADTVVKLNLQKLATVAEAMARNSGDGSGSQVT
x | L117H: PYR1 mutant (protein, UniProt O49686 1-191, looked up, variant L117H) Abscisic acid receptor PYR1: MPSELTPEERSELKNSIAEFHTYQLDPGSCSSLHAQRIHAPPELVWSIVRRFDKPQTYKHFIKSCSVEQNFEMRVGCTRDVIVISGLPANTSTERLDILDDERRVTGFSIIGGEHRHTNYKSVTTVHRFEKENRIWTVVLESYVVDMPEGNSEDDTRMFADTVVKLNLQKLATVAEAMARNSGDGSGSQVT
x | L117Q: PYR1 mutant (protein, UniProt O49686 1-191, looked up, variant L117Q) Abscisic acid receptor PYR1: MPSELTPEERSELKNSIAEFHTYQLDPGSCSSLHAQRIHAPPELVWSIVRRFDKPQTYKHFIKSCSVEQNFEMRVGCTRDVIVISGLPANTSTERLDILDDERRVTGFSIIGGEHRQTNYKSVTTVHRFEKENRIWTVVLESYVVDMPEGNSEDDTRMFADTVVKLNLQKLATVAEAMARNSGDGSGSQVT
x | L117S: PYR1 mutant (protein, UniProt O49686 1-191, looked up, variant L117S) Abscisic acid receptor PYR1: MPSELTPEERSELKNSIAEFHTYQLDPGSCSSLHAQRIHAPPELVWSIVRRFDKPQTYKHFIKSCSVEQNFEMRVGCTRDVIVISGLPANTSTERLDILDDERRVTGFSIIGGEHRSTNYKSVTTVHRFEKENRIWTVVLESYVVDMPEGNSEDDTRMFADTVVKLNLQKLATVAEAMARNSGDGSGSQVT
x | L117Y: PYR1 mutant (protein, UniProt O49686 1-191, looked up, variant L117Y) Abscisic acid receptor PYR1: MPSELTPEERSELKNSIAEFHTYQLDPGSCSSLHAQRIHAPPELVWSIVRRFDKPQTYKHFIKSCSVEQNFEMRVGCTRDVIVISGLPANTSTERLDILDDERRVTGFSIIGGEHRYTNYKSVTTVHRFEKENRIWTVVLESYVVDMPEGNSEDDTRMFADTVVKLNLQKLATVAEAMARNSGDGSGSQVT
x | P148M: PYR1 mutant (protein, UniProt O49686 1-191, looked up, variant P148M) Abscisic acid receptor PYR1: MPSELTPEERSELKNSIAEFHTYQLDPGSCSSLHAQRIHAPPELVWSIVRRFDKPQTYKHFIKSCSVEQNFEMRVGCTRDVIVISGLPANTSTERLDILDDERRVTGFSIIGGEHRLTNYKSVTTVHRFEKENRIWTVVLESYVVDMMEGNSEDDTRMFADTVVKLNLQKLATVAEAMARNSGDGSGSQVT
x | L117K: PYR1 mutant (protein, UniProt O49686 1-191, looked up, variant L117K) Abscisic acid receptor PYR1: MPSELTPEERSELKNSIAEFHTYQLDPGSCSSLHAQRIHAPPELVWSIVRRFDKPQTYKHFIKSCSVEQNFEMRVGCTRDVIVISGLPANTSTERLDILDDERRVTGFSIIGGEHRKTNYKSVTTVHRFEKENRIWTVVLESYVVDMPEGNSEDDTRMFADTVVKLNLQKLATVAEAMARNSGDGSGSQVT
x | L117V: PYR1 mutant (protein, UniProt O49686 1-191, looked up, variant L117V) Abscisic acid receptor PYR1: MPSELTPEERSELKNSIAEFHTYQLDPGSCSSLHAQRIHAPPELVWSIVRRFDKPQTYKHFIKSCSVEQNFEMRVGCTRDVIVISGLPANTSTERLDILDDERRVTGFSIIGGEHRVTNYKSVTTVHRFEKENRIWTVVLESYVVDMPEGNSEDDTRMFADTVVKLNLQKLATVAEAMARNSGDGSGSQVT
x | L117N: PYR1 mutant (protein, UniProt O49686 1-191, looked up, variant L117N) Abscisic acid receptor PYR1: MPSELTPEERSELKNSIAEFHTYQLDPGSCSSLHAQRIHAPPELVWSIVRRFDKPQTYKHFIKSCSVEQNFEMRVGCTRDVIVISGLPANTSTERLDILDDERRVTGFSIIGGEHRNTNYKSVTTVHRFEKENRIWTVVLESYVVDMPEGNSEDDTRMFADTVVKLNLQKLATVAEAMARNSGDGSGSQVT
x | L117D: PYR1 mutant (protein, UniProt O49686 1-191, looked up, variant L117D) Abscisic acid receptor PYR1: MPSELTPEERSELKNSIAEFHTYQLDPGSCSSLHAQRIHAPPELVWSIVRRFDKPQTYKHFIKSCSVEQNFEMRVGCTRDVIVISGLPANTSTERLDILDDERRVTGFSIIGGEHRDTNYKSVTTVHRFEKENRIWTVVLESYVVDMPEGNSEDDTRMFADTVVKLNLQKLATVAEAMARNSGDGSGSQVT
